Here are results for 2 molecules from PMC5625035, “The Rev1 interacting region (RIR) motif in the scaffold protein XRCC1 mediates a low-affinity interaction with polynucleotide kinase/phosphatase (PNKP) during DNA single-strand break repair” (The Journal of Biological Chemistry, 2017).

The term Kd denotes the constant that tells how readily two partners part at equilibrium.

B2: acrylodan-labeled PNKP (PNKP^WFX402-AC) (enzyme)
chain: not shown
modifications: acrylodan (6-acryloyl-2-dimethylaminonaphthalene, AC) label, site not stated

Assay [1] deals with B2. As to the kind of experiment: other fluorescence titration; quenching of acrylodan fluorescence of PNKP-AC (excitation 380 nm, emission 485-490 nm) by added XRCC1 protein; 25 °C; PNKP-AC 20 nM with full-length XRCC1-His, 80 nM with His-XRCC1^161–406 and in the emission scans with His-XRCC1^FFF; nonlinear regression, unimodal binding. The conditions noted are these: both partners purified.

The target in assay [2] is T1, full-length XRCC1-His (recombinant, from E. coli) (human, UniProt P18887 1-633).
T1 construct: XRCC1, human, full length, not phosphorylated (made in E. coli); also called wild-type XRCC1; X-ray repair cross-complementing 1; source: E. coli (pET16b-XH), purified
The description is as above. The conditions noted are these: both partners purified.

T1 sequence (P18887 whole entry): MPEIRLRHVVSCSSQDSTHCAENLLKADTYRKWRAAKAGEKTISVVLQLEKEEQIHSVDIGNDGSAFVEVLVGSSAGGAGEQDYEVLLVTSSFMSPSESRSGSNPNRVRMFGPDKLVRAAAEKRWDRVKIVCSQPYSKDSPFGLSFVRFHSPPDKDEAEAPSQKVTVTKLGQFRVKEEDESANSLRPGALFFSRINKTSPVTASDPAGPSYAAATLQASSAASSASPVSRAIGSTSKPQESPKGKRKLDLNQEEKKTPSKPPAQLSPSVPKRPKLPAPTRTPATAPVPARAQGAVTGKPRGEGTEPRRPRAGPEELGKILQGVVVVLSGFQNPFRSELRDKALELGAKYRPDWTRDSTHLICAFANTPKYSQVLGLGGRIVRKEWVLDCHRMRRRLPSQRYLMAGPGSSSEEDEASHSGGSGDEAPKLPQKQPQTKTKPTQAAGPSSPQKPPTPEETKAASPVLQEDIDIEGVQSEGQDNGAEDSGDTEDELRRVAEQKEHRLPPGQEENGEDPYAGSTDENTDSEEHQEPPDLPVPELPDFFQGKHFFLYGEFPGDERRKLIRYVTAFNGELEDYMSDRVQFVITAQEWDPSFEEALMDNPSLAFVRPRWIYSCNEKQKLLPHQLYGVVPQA

B1: His-XRCC1^161–406 (domain or fragment)
chain: PSQKVTVTKLGQFRVKEEDESANSLRPGALFFSRINKTSPVTASDPAGPSYAAATLQASSAASSASPVSRAIGSTSKPQESPKGKRKLDLNQEEKKTPSKPPAQLSPSVPKRPKLPAPTRTPATAPVPARAQGAVTGKPRGEGTEPRRPRAGPEELGKILQGVVVVLSGFQNPFRSELRDKALELGAKYRPDWTRDSTHLICAFANTPKYSQVLGLGGRIVRKEWVLDCHRMRRRLPSQRYLMAGP
B1 came in with a Kd in assay [1] of roughly 0.095 µM.
Regarding B2, the Kd in assay [2] is roughly 0.03 µM.
